Numbering of substitutions follows the chain as printed.
T1: activated human complement C1s (human, UniProt P09871 16-688)
T1 sequence: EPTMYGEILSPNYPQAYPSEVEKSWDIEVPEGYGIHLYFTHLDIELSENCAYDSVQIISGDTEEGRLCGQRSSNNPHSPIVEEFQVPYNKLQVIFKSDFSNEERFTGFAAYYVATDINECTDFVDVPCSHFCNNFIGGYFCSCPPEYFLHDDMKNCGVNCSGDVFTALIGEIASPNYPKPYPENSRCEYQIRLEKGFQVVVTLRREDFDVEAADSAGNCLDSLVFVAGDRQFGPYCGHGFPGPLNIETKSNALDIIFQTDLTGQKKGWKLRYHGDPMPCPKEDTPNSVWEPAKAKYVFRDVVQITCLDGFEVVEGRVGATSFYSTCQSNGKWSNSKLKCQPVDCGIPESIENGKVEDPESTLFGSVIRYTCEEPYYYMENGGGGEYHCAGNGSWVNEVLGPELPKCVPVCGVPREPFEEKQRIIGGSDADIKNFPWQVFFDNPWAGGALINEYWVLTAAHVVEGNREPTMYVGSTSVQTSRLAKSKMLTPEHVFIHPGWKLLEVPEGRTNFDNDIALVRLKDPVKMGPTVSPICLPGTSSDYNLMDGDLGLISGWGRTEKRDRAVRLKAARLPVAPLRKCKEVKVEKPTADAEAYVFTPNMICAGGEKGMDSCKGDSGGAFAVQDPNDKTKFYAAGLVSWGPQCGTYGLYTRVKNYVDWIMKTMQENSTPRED

B1: TNT005.001 (antibody, V domains shown)
VH: EVQLQQSGAELVRPGASVKLSCTASGFNIKDDYIHWVKQRPEQGLEWIGRIDPADGHTKYAPKFQVKATITADTSSNTAYLQLSSLTSEDTAVYYCARYGYGREVFDYWGQGTTLTVSS
VL: DIVLTQSPASLAVSLGQRATISCKASQSVDYDGDSYMNWYQQKTGQPPKILIYDASNLESGIPARFSGSGSGTDFTLNIHPVEEEDAAIYYCQQSNEDPWTFGGGTKLEIK
notes: Unlabelled parental antibody; also called parental TNT005 (not biotinylated)
B2: humanized TNT005 variant VH variant 3+Vk variant 2 (antibody, V domains shown)
VH: QVQLVQSGAEVKKPGASVKLSCTASGFNIKDDYIHWVKQAPGQGLEWIGRIDPADGHTKYAPKFQVKVTITADTSTSTAYLELSSLRSEDTAVYYCARYGYGREVFDYWGQGTTVTVSS
VL: B1 VL with A9D, Q17E, T44P, N78T, H80S, P81S, V82L, E84P, A87F, L108V
notes: also called VH variant 3 + VL variant 2
B3: humanized TNT005 variant VH variant 1+Vk variant 1 (antibody, V domains shown)
VH: B2 VH with Q1E, V11L, V68A, S77N, E82Q, R87T
VL: B1 VL with A9D, Q17E, N78T, H80S, P81S, V82L, A87F, L108V
notes: also called VH variant 1 + VL variant 1
B4: humanized TNT005 variant VH variant 1+Vk variant 2 (antibody, V domains shown)
VH: B2 VH with Q1E, V11L, V68A, S77N, E82Q, R87T
VL: B1 VL with A9D, Q17E, T44P, N78T, H80S, P81S, V82L, E84P, A87F, L108V
notes: also called VH variant 1 + VL variant 2
B5: humanized TNT005 variant VH variant 1+Vk variant 5 (antibody, V domains shown)
VH: B2 VH with Q1E, V11L, V68A, S77N, E82Q, R87T
VL: DIVLTQSPDSLAVSLGERATISCKASQSVDYDGDSYMNWYQQKPGQPPKLLIYDASNLESGIPARFSGSGSGTDFTLTISSLEPEDFAVYYCQQSNEDPWTFGGGTKVEIK
notes: also called VH variant 1 + VL variant 5
B6: humanized TNT005 variant VH variant 2+Vk variant 1 (antibody, V domains shown)
VH: B2 VH with Q1E, V68A, S77N
VL: B5 VL with P44T, L50I, P84E, V89I
notes: also called VH variant 2 + VL variant 1
B7: humanized TNT005 variant VH variant 2+Vk variant 2 (antibody, V domains shown)
VH: B2 VH with Q1E, V68A, S77N
VL: B5 VL with L50I, V89I
notes: also called VH variant 2 + VL variant 2
B8: humanized TNT005 variant VH variant 2+Vk variant 5 (antibody, V domains shown)
VH: B2 VH with Q1E, V68A, S77N
VL: B5 VL
notes: also called VH variant 2 + VL variant 5
B9: humanized TNT005 variant VH variant 3+Vk variant 1 (antibody, V domains shown)
VH: B2 VH
VL: B5 VL with P44T, L50I, P84E, V89I
notes: also called VH variant 3 + VL variant 1
B10: humanized TNT005 variant VH variant 3+Vk variant 5 (antibody, V domains shown)
VH: B2 VH
VL: B5 VL
notes: also called VH variant 3 + VL variant 5
B11: humanized TNT005 variant VH variant 4+Vk variant 1 (antibody, V domains shown)
VH: B2 VH with L20V, K38R, L81M
VL: B5 VL with P44T, L50I, P84E, V89I
notes: also called VH variant 4 + VL variant 1
B12: humanized TNT005 variant VH variant 4+Vk variant 2 (antibody, V domains shown)
VH: B2 VH with L20V, K38R, L81M
VL: B5 VL with L50I, V89I
notes: also called VH variant 4 + VL variant 2
B13: humanized TNT005 variant VH variant 4+Vk variant 5 (antibody, V domains shown)
VH: B2 VH with L20V, K38R, L81M
VL: B5 VL
notes: also called VH variant 4 + VL variant 5
B14: humanized TNT005 variant VH variant 5+Vk variant 1 (antibody, V domains shown)
VH: B2 VH with L20V, T23A, K38R, L81M
VL: B5 VL with P44T, L50I, P84E, V89I
notes: also called VH variant 5 + VL variant 1
B15: humanized TNT005 variant VH variant 5+Vk variant 2 (antibody, V domains shown)
VH: B2 VH with L20V, T23A, K38R, L81M
VL: B5 VL with L50I, V89I
notes: also called VH variant 5 + VL variant 2
B16: humanized TNT005 variant VH variant 5+Vk variant 5 (antibody, V domains shown)
VH: B2 VH with L20V, T23A, K38R, L81M
VL: B5 VL
notes: also called VH variant 5 + VL variant 5
B17: biotinylated TNT005 (antibody, V domains shown)
VH: B1 VH
VL: B1 VL
notes: Parental antibody; also called Biot-005; parental TNT005

Each binder was assayed against T1, activated human complement C1s (assay: cell-based or functional assay).

| IC50 of classical complement pathway inhibition (commercial CP activation assay) | Binder |
| --- | --- |
| 1.06 nM | B1 |
| 1.26 nM | B2 |
| 1.2 nM | B3 |
| 1.14 nM | B4 |
| 1.26 nM | B5 |
| 1.23 nM | B6 |
| 1.26 nM | B7 |
| 1.27 nM | B8 |
| 1.27 nM | B9 |
| 1.38 nM | B10 |
| 1.35 nM | B11 |
| 1.31 nM | B12 |
| 1.54 nM | B13 |
| 1.06 nM | B14 |
| 1.31 nM | B15 |
| 1.33 nM | B16 |

Each binder was assayed against T1, activated human complement C1s (assay: direct binding of antibody to activated C1s (aC1s); assay format not stated).

| EC50 | Binder |
| --- | --- |
| 0.0559 nM | B1 |
| 0.163 nM | B2 |
| 0.201 nM | B3 |
| 0.088 nM | B4 |
| 0.107 nM | B5 |
| 0.137 nM | B6 |
| 0.134 nM | B7 |
| 0.124 nM | B8 |
| 0.168 nM | B9 |
| 0.138 nM | B10 |
| 0.152 nM | B11 |
| 0.119 nM | B12 |
| 0.205 nM | B13 |
| 0.113 nM | B14 |
| 0.164 nM | B15 |
| 0.165 nM | B16 |
| 0.0828 nM | B17 |

The binders below were run against T1, activated human complement C1s (assay: kinetic characterization of binding to active human C1s; instrument not stated).

| Kd | kon | Binder |
| --- | --- | --- |
| 0.585 nM | 838000 M⁻¹ s⁻¹ | B2 |
| 0.228 nM | 864000 M⁻¹ s⁻¹ | B3 |
| 0.208 nM | 818000 M⁻¹ s⁻¹ | B4 |
| 0.217 nM | 776000 M⁻¹ s⁻¹ | B5 |
| 0.251 nM | 829000 M⁻¹ s⁻¹ | B6 |
| 0.206 nM | 835000 M⁻¹ s⁻¹ | B7 |
| 0.208 nM | 798000 M⁻¹ s⁻¹ | B8 |
| 0.457 nM | 1.03e+06 M⁻¹ s⁻¹ | B14 |

These binders were tested against T1, activated human complement C1s (assay: competition binding to active C1s; competitor 50 pM biotinylated TNT005 (Biot-005)).
Method: All 15 combinations (VH variant 1+Vk variant 1; VH variant 1+Vk variant 2; VH variant 1+Vk variant 5; VH variant 2+Vk variant 1; VH variant 2+Vk variant 2; VH variant 2+Vk variant 5; VH variant 3+Vk variant 1; VH variant 3+Vk variant 2; VH variant 3+Vk variant 5; VH variant 4+Vk variant 1; VH variant 4+Vk variant 2; VH variant 4+Vk variant 5; VH variant 5+Vk variant 1; VH variant 5+Vk variant 2; VH variant 5+Vk variant 5) were produced. Each humanized variant was tested for the ability to compete with biotinylated TNT005 for binding to active C1s.

| IC50 | Binder |
| --- | --- |
| 0.0395 nM | B1 |
| 0.183 nM | B2 |
| 0.124 nM | B3 |
| 0.0557 nM | B4 |
| 0.129 nM | B5 |
| 0.144 nM | B6 |
| 0.158 nM | B7 |
| 0.168 nM | B8 |
| 0.179 nM | B9 |
| 0.158 nM | B10 |
| 0.152 nM | B11 |
| 0.158 nM | B12 |
| 0.156 nM | B13 |
| 0.0449 nM | B14 |
| 0.148 nM | B15 |
| 0.137 nM | B16 |

The binders below were run against T1, activated human complement C1s (assay: kinetic characterization of binding to active human C1s; instrument not stated; column head kdis).

| koff | Binder |
| --- | --- |
| 0.00049 s⁻¹ | B2 |
| 0.000197 s⁻¹ | B3 |
| 0.00017 s⁻¹ | B4 |
| 0.000168 s⁻¹ | B5 |
| 0.000208 s⁻¹ | B6 |
| 0.000172 s⁻¹ | B7 |
| 0.000166 s⁻¹ | B8 |
| 0.000471 s⁻¹ | B14 |

From patent US20200405852A1 (BIOVERATIV USA, published 2020)
